{
  "source": "patent US20220315908A1",
  "about": "“NOVEL GARDNERELLA ENDOLYSINS AND USES THEREOF” (priority 2019, published 2022)",
  "molecules": {"B1": {"name": "H5B5: natural Gardnerella prophage endolysin from strain JCP7276 (protein)", "chain": "MSKKGIDVSEWQGDIDFNAVKASGVEFVIIRAGYGIGCKDKWFEQNYRKAKTAGLDVGAYWYSYANSSSEAAEEAQSCANMLSGKSFEYPVYFDLEEKSQLNRGRAFCDSLITGFCSKLEACGYYAGFYTSLSTANNLVSAHVRNRYALWIAQWNTHCSYQGSYGLWQYSSNGSVPGVAGRVDMDYAYKDYPSIIKNAGLNGCKNGGSDQAARTSSIDEVAREVINGAWGNGNERKQRLTQAGYDYTSVQNKVNKLLGVKACRKSVDELAREVIRGTWGNGNERKNRLTQAGYDYDTVQKRVNELL", "modifications": "EL5_strain_JCP7276", "notes": "natural Gardnerella prophage endolysin from strain JCP7276"}, "B2": {"name": "H7B7: natural Gardnerella prophage endolysin from strain AMD (protein)", "chain": "B1 chain with S68A, G114S, A121T, C122Y, A141S, N172S", "modifications": "EL7_strain_AMD", "notes": "natural Gardnerella prophage endolysin from strain AMD"}, "B3": {"name": "H1B1: natural Gardnerella prophage endolysin from strain HMP9231 (protein)", "chain": "MSKKGIDVSEWQGDIDFNAVKASGVEFVIIRAGYGIGCKDKWFEQNYRKAKTAGLDVGAYWYSYANSGFEAAEEAQSLMNMLSGKSFEYPVYFDLEEKSQLNRGRAFCDSLITSFCNKLEACGYYAGFYTSLSTANNLVSAHVRNRYALWIAQWNTHCNYQGSYGLWQYSSNGSVPGVAGRVDMDYAYVDYPSIIKNAGLNGCKNGGSDQAARTSSIDEVAREVINGAWGNGSTRKQRLTSAGYDYASVQNKVNELLGVKACRKSVDELAREVIRGAWGNGSTRKQRLAQAGYDYDTVQKRVNELL", "modifications": "EL1_strain_HMP9231", "notes": "natural Gardnerella prophage endolysin from strain HMP9231"}, "B4": {"name": "H2B2: natural Gardnerella prophage endolysin from strain Gv18-4 (protein)", "chain": "MSKRGIDVSEWQGDIDFNAVKASGVEFVIIRAGYGIGCKDKWFEQNYRKAKTCGLDVGAYWYSYANSGFEAAEEAQSCVNMLSGKSFEYPVYFDLEEKSQLNRGRAFCDSLITGFCNKLESCGYYAGFYTSLSTANNLVSAHVRNRYALWIAQWNTHCSYQGSYGLWQYSSSGSVPGVAGRVDMDYAYVDYPSIIKNVGLNGCKNGGSDQAARTSSIDEVAREVINGAWGNGNERKQRLTSAGYDYASVQNKVNELLGVKACRKSVDEIAREVIRGTWGNGSTRKQRLTQAGYDYDTVQKRVNELL", "modifications": "EL2_strain_Gv18-4"}, "B5": {"name": "H10B10: natural Gardnerella prophage endolysin from strain G30-4 (protein)", "chain": "MSKRGIDVSVWQGDIDFNAVKASGVEFVIIRAGYGIGHKDKWFEENYRKAKTVGLDVGAYWYSYASSAGEASEEAQSCVNILSGKSFEYPVYFDLEEKSQLNRGRDFCDSLITSFCNKLEACGYYAGFYTSLSVANNLVSSHVRDRYALWIAQWNTHCSYQGSYGLWQYSSSGSVNGIAGRVDMDYAYVDYPSVIKNAGLNGYKNGGSYTAPQISSIDEVAREVINGDWGNGNERKQRLTSAGYDYASVQNKVNELLGVKAYRKSVDELAREVIRGTWGNGSTRKQRLTQAGYDYNAVQKRVNELL", "modifications": "EL10_strain_G30-4"}, "B6": {"name": "H3B3: natural Gardnerella prophage endolysin from strain Gv18-4 (protein)", "chain": "MSKKGIDVSVWQGDIDFNSVKASGVEFVIIRAGYGIGHKDKWFEENYRKAKTAGLDVGSYWYSYASSAGEASEEAQSCVNILSGKSFEYPIYFDLEEKSQLNRGRDFCDSLITSFCNKLEACGYYAGFYTSLSVANNLVSSHVRDRYALWIAQWNTHCSYQGSYGLWQYSSSGSVNGIAGRVDMDYAYVDYPSVIKNAGLNGYQNGGSYTAPQTSSIDEVAREVINGDWGNGNDRKNRLISAGYDYASVQNKVNELLGVKAYRKSVDELAREVIRGTWGNGSMRKHRLTQAGYDYDAVQKRVNELL", "modifications": "EL3_strain_Gv18-4"}, "B7": {"name": "H4B4: natural Gardnerella prophage endolysin from strain Gv5-1 (protein)", "chain": "MSKKGIDVSEWQGDIDFNAVKASGVEFVIIRAGYGIGCKDKWFEQNYRKAKTCGLDVGAYWYSYANSGFEAAEEAQSCVNMLSGKSFEYPVYFDLEEKSQLNRGRAFCDSLITSFCSKLETYGYYAGFYTSLSVVNNLVSAHVRDRYALWIAQWNTHCSYQGSYGLWQYSSSGSVPGVAGRVDMDYAYVDYPSIIKNVGLNGCKNGGSDQATRTSSIDEVAREVINGAWGNGNERKQRLTSAGYDYASVQNKVNKLLGVKAYRKSVDELAREVIRGTWGNGNERKQRLAQAGYDYDTVQKRVNELL", "modifications": "EL4_strain_Gv5-1"}},
  "note": "Where a chain is given by its changes, count along the chain named.",
  "data": [
    {"tested_on": "Gardnerella cells", "experiment": "Turbidity reduction (OD) assay of Gardnerella suspensions", "type": "cell-based", "conditions": "Gv_10 pH 6.0, Gv_17 pH 7.0, Gv_23 pH 7.4; aerobic, room temperature; vs buffer", "protocol": "FIGS. 4A to 4C show three enzymatic activity assays where the enzymatic activity of natural Gardnerella prophage endolysins of the present disclosure is measured by detecting the change in turbidity of a suspension of Gardnerella cells. In FIG. 4A, the enzymatic activity of the endolysins is measured by detecting the change in turbidity of a suspension of the G. leopoldii strain Gv_10 at pH 6.0. In FIG. 4B, the enzymatic activity of the endolysins is measured by detecting the change in turbidity of a suspension of the G. piotii strain Gv_17 at pH 7.0. In FIG. 4C, the enzymatic activity of the endolysins is measured by detecting the change in turbidity of a suspension of the G. swidsinskii strain Gv_23 at pH 7.4. Treatment was conducted in a medium adjusted to the appropriate pH in a photometric cuvette against buffer. Then, the change in turbidity was assessed by measuring the optical density (OD) at 600 nm. As a result, the drop in turbidity was more pronounced for the endolysin treated groups than for the buffer, indicating enzymatic activity.\nTo test the activity of the purified endolysins, the turbidity change of Gardnerella suspensions (see Table 2) was measured at 610-620 nm using essentially the method described in Reference Example 2, where 95 ul of bacterial suspension in Hardy Broth at the indicated pH was mixed with 5 ul of endolysin solution in a photometric cuvette under aerobic conditions at room temperature. In turbidity reduction assays, a decrease in light scattering (i.e., turbidity reduction) of a suspension of live cells can be used in a spectrophotometer to assay the activity of peptidoglycan hydrolases. The reduction in optical density over time (minutes) can be used to calculate a rate of hydrolysis. Results are compared to a “no-enzyme added, buffer only” control preparation treated identically for the same period of time. In this manner, a specific activity of the enzyme preparation can be reported as ΔOD/time/ul lysin protein. […] As explained above, due to the low content of peptidoglycan in the cell wall, the fact that a peptidoglycan-degrading enzyme such as the identified endolysins could efficiently lyse the bacterial cell walls was an unexpected and surprising discovery.\nGardnerella cells were recovered from cryo stock by plating on Chocolate Agar plates (Beckton Dickinson) and incubating for 48 h at 37° C. under anaerobic conditions. For Lactobacilli, BD Schaedler/5% sheep blood agar plates were used instead. Colonies were scraped from the plate, resuspended in Hardy Broth or NYC-III-HS-5.0 at the pH as indicated, and the suspension adjusted to OD (610 or 620 nm as indicated) 0.1. It has to be noted that two Tecan Microplate readers, having respectively a 610 nm or 620 nm filter, have been used interchangeably in the experiments. Although it doesn't make any difference for the experiments, the exact wavelength used is specified in each example. If not stated otherwise, 90 μl cell suspension was mixed with 10 μl endolysin solution, for the different species/endolysin combinations, in 384-well plates. OD(610-620 nm as indicated) was measured at the beginning of the reaction and at the end, either as two measurement points or as a continuous kinetic in a Tecan F200 Microplate reader. The reactions were incubated for 5 hours (or otherwise the time indicated) at 37° C. under anaerobic, micro-aerophilic or aerobic conditions as indicated. Anaerobic conditions intend that oxygen was fully depleted from the container in which the bacteria are incubated (Sigma-Aldrich anaerobic jar or sealable lunch box) with an anaerobic sachet, and the lack of oxygen was confirmed with an anaerobic indicator inside the container. Where micro-aerophilic conditions are indicated, the candle-in-a-jar method was used (tea candle lit in an appropriate sealable container, which reduces oxygen levels until the flame dies out). […]", "values": [
      {"molecule": "B1", "enzymatic activity by drop in turbidity (capacity to lyse Gardnerella cell walls)": "active"},
      {"molecule": "B2", "enzymatic activity by drop in turbidity (capacity to lyse Gardnerella cell walls)": "active"},
      {"molecule": "B3", "enzymatic activity by drop in turbidity (capacity to lyse Gardnerella cell walls)": "active"},
      {"molecule": "B4", "enzymatic activity by drop in turbidity (capacity to lyse Gardnerella cell walls)": "active"},
      {"molecule": "B5", "enzymatic activity by drop in turbidity (capacity to lyse Gardnerella cell walls)": "active"},
      {"molecule": "B6", "enzymatic activity by drop in turbidity (capacity to lyse Gardnerella cell walls)": "active"},
      {"molecule": "B7", "enzymatic activity by drop in turbidity (capacity to lyse Gardnerella cell walls)": "active"}
    ]},
    {"tested_on": "G. leopoldii strain Gv_11", "experiment": "Quantitative reduction in viable CFU assay in bacterial suspension", "type": "cell-based, Gardnerella leopoldii", "conditions": "5 hours, pH 5.0, anaerobic, 10 ul endolysin (0.2 mg/ml where possible) + 90 ul 5e7 CFU/ml, average of triplicate", "protocol": "The lysis activity on the four main species of Gardnerella of 91 constructs (natural and domain-swapped endolysins) was quantitatively assessed using the method described in Reference Example 2. Briefly, 90 ul 5e7 CFU/ml of the indicated strain were incubated for 5 hours at pH 5.0 under anaerobic conditions with 10 ul endolysin (concentration adjusted to 0.2 mg/ml where possible, see Table 4).\nThe results are shown in FIGS. 8A to 8D together with Tables 5A to 5C. In FIGS. 8A to 8D, the logarithmic Y axis depicts the count of surviving cells. The dotted line indicates the limit of detection (LOD) given by plating of 2 ul of the reaction mix (500 CFU/ml). Each combination of the natural 10 H-domains and the natural 9 B-regions was assessed, including the natural endolysins (H1B1, H2B2, H3B3, etc.), plus H6B6. […] The activity of each construct was measured on each of the 4 main Gardnerella species G. vaginalis sensu stricto, G. leopoldii, G. piotii, and G. swidsinkii. All conditions have been measured in triplicate. The survival after 5 hours incubation at pH 5.0 under anaerobic conditions with endolysins vs. buffer was measured by quantitative plating. The values indicate the log 10 of the ratio of surviving CFU for treated vs. untreated cells. The average of the triplicate measurements is used. In tables 5A and 5B, high negative log 10 values, e.g. −6.7, −5.5, −4.8 etc. are associated with high enzymatic activity, while log 10 values closer to zero or even positive log 10 values are associated with low or no enzymatic activity. […] Inversely, a reduction value of −3.7 means a 10^3.7-fold (=5012-fold) reduction of viable CFU in treated sample vs. untreated control.\nGardnerella cells were recovered from cryo stock by plating on Chocolate Agar plates (Beckton Dickinson) and incubating for 48 h at 37° C. under anaerobic conditions. For Lactobacilli, BD Schaedler/5% sheep blood agar plates were used instead. Colonies were scraped from the plate, resuspended in Hardy Broth or NYC-III-HS-5.0 at the pH as indicated, and the suspension adjusted to OD (610 or 620 nm as indicated) 0.1. It has to be noted that two Tecan Microplate readers, having respectively a 610 nm or 620 nm filter, have been used interchangeably in the experiments. Although it doesn't make any difference for the experiments, the exact wavelength used is specified in each example. If not stated otherwise, 90 μl cell suspension was mixed with 10 μl endolysin solution, for the different species/endolysin combinations, in 384-well plates. OD(610-620 nm as indicated) was measured at the beginning of the reaction and at the end, either as two measurement points or as a continuous kinetic in a Tecan F200 Microplate reader. The reactions were incubated for 5 hours (or otherwise the time indicated) at 37° C. under anaerobic, micro-aerophilic or aerobic conditions as indicated. Anaerobic conditions intend that oxygen was fully depleted from the container in which the bacteria are incubated (Sigma-Aldrich anaerobic jar or sealable lunch box) with an anaerobic sachet, and the lack of oxygen was confirmed with an anaerobic indicator inside the container. Where micro-aerophilic conditions are indicated, the candle-in-a-jar method was used (tea candle lit in an appropriate sealable container, which reduces oxygen levels until the flame dies out). Then each well was diluted in 5 steps (10^−1 to 10^−5) using 96-U-well bottom plates, and 2 μl of each dilution of each reaction mix are plated on BD Chocolate agar plates or BD Schaedler/5% sheep blood agar plates for Gardnerella and Lactobacilli, respectively, for detecting and quantifying surviving CFU. Detection plates were incubated at 37° C. for 48 hours under anaerobic conditions.", "units": {"log 10 of the ratio of surviving CFU for treated vs. untreated cells": "log 10"}, "values": [
      {"molecule": "B1", "log 10 of the ratio of surviving CFU for treated vs. untreated cells": 0.3},
      {"molecule": "B2", "log 10 of the ratio of surviving CFU for treated vs. untreated cells": "−2.1"},
      {"molecule": "B3", "log 10 of the ratio of surviving CFU for treated vs. untreated cells": "−1.3"},
      {"molecule": "B4", "log 10 of the ratio of surviving CFU for treated vs. untreated cells": "−1.1"},
      {"molecule": "B5", "log 10 of the ratio of surviving CFU for treated vs. untreated cells": "−1.6"},
      {"molecule": "B6", "log 10 of the ratio of surviving CFU for treated vs. untreated cells": "−2.0"},
      {"molecule": "B7", "log 10 of the ratio of surviving CFU for treated vs. untreated cells": "−0.5"}
    ]}
  ]
}
